We go through 125 sequences from the supplement of paper PMC9112550, “Optimization of the antimicrobial peptide Bac7 by deep mutational scanning” (BMC Biology, 2022).

The series deals with Escherichia coli TOP10. In words: shrunken log2 fold change of peptide-encoding DNA abundance (4.5 h post-induction vs induction); higher = less antimicrobial activity (less host growth inhibition). Particulars: time post-induction: 4.5 h; library: site-saturation at positions 5, 18, 19, 20.
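Note: peptides expressed intracellularly from a pBAD plasmid library in pooled LB shake-flask culture, induced with 0.3% L-arabinose, DNA abundance read by NGS, three biological replicates, DESeq2 with apeglm shrinkage.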

As to RRIRHRPPRLPRPRPRPVQIPRP, the “shrunken log2 fold change” value is -0.0126.
To RRIRGRPPRLPRPRPRPNEWPRP belongs 1.8.
In the case of RRIRSRPPRLPRPRPRPRSMPRP, the “shrunken log2 fold change” value was -0.0644.
Under RRIRLRPPRLPRPRPRPTIYPRP stands -0.334; under RRIRVRPPRLPRPRPRPKRDPRP, 0.292.
For RRIRLRPPRLPRPRPRPDFKPRP, the “shrunken log2 fold change” value is -0.06.
Under RRIRKRPPRLPRPRPRPYSMPRP stands -0.39; under RRIRSRPPRLPRPRPRPLWAPRP, 0.206; under RRIRMRPPRLPRPRPRPVYSPRP, -0.248.
To RRIRCRPPRLPRPRPRPQPLPRP belongs 0.19.
Under RRIRNRPPRLPRPRPRPRKYPRP stands -0.258; under RRIRERPPRLPRPRPRPIIMPRP, -0.119.
Regarding RRIRYRPPRLPRPRPRPHFLPRP, the “shrunken log2 fold change” value is -0.13.
To RRIRIRPPRLPRPRPRPIHNPRP belongs -0.936; to RRIRIRPPRLPRPRPRPNQAPRP, -0.0486.
Under RRIRHRPPRLPRPRPRPELSPRP stands 0.252; under RRIRTRPPRLPRPRPRPLLFPRP, -0.181.
For RRIRMRPPRLPRPRPRPCVIPRP, the “shrunken log2 fold change” value was -0.04.
To RRIRSRPPRLPRPRPRPFDRPRP belongs -0.118; to RRIRRRPPRLPRPRPRPAFRPRP, 0.311; to RRIRIRPPRLPRPRPRPLFLPRP, -0.653.
Under RRIRMRPPRLPRPRPRPEGIPRP stands 2.03; under RRIRYRPPRLPRPRPRPFAIPRP, -0.158.
Under RRIRLRPPRLPRPRPRPKCRPRP stands 0.147; under RRIRMRPPRLPRPRPRPQNNPRP, -0.13; under RRIRYRPPRLPRPRPRPNNCPRP, -0.0707.
For the sequence RRIRKRPPRLPRPRPRPPLRPRP, the “shrunken log2 fold change” value was 0.708.
As to RRIRFRPPRLPRPRPRPQFKPRP, the “shrunken log2 fold change” value was -0.217.
Under RRIRQRPPRLPRPRPRPTLKPRP stands -0.0628; under RRIRKRPPRLPRPRPRPPRCPRP, 0.578.
As to RRIRPRPPRLPRPRPRPNTSPRP, the “shrunken log2 fold change” value is -0.237.
With RRIRFRPPRLPRPRPRPCGIPRP, the “shrunken log2 fold change” value was -0.168.
Under RRIRMRPPRLPRPRPRPHAQPRP stands -0.015.
Under RRIRWRPPRLPRPRPRPKGLPRP stands -0.0645; under RRIRMRPPRLPRPRPRPLVFPRP, 0.102.
To RRIRSRPPRLPRPRPRPAHKPRP belongs -0.152; to RRIRIRPPRLPRPRPRPKIQPRP, -0.196; to RRIRIRPPRLPRPRPRPKPAPRP, 0.243.
On to RRIRARPPRLPRPRPRPKTKPRP, for which the “shrunken log2 fold change” value came out at 0.0731.
To RRIRYRPPRLPRPRPRPMCYPRP belongs -0.399; to RRIRRRPPRLPRPRPRPWDNPRP, 0.0234; to RRIRFRPPRLPRPRPRPCYYPRP, -0.401.
Under RRIRVRPPRLPRPRPRPIAVPRP stands 0.0926.
In the case of RRIRIRPPRLPRPRPRPKDPPRP, the “shrunken log2 fold change” value was -0.111.
Under RRIRIRPPRLPRPRPRPCGWPRP stands 0.0831; under RRIRPRPPRLPRPRPRPDMGPRP, -0.407.
Under RRIRLRPPRLPRPRPRPITSPRP stands 0.0662; under RRIRNRPPRLPRPRPRPLQCPRP, -0.00595; under RRIRCRPPRLPRPRPRPKYYPRP, 0.167.
To RRIRFRPPRLPRPRPRPQTNPRP belongs -0.619.
For the sequence RRIRLRPPRLPRPRPRPAIVPRP, the “shrunken log2 fold change” value was determined as 0.0701.
Under RRIRVRPPRLPRPRPRPTSMPRP stands -0.192; under RRIRPRPPRLPRPRPRPMKDPRP, -0.313; under RRIRKRPPRLPRPRPRPHYEPRP, -0.0316.
Under RRIRPRPPRLPRPRPRPHLDPRP stands 0.158; under RRIRRRPPRLPRPRPRPMDHPRP, -0.0417; under RRIRLRPPRLPRPRPRPMKRPRP, -0.0358.
Under RRIRTRPPRLPRPRPRPPTGPRP stands 0.158; under RRIRVRPPRLPRPRPRPKKAPRP, 0.157.
As for RRIRHRPPRLPRPRPRPYICPRP, the “shrunken log2 fold change” value was -0.153.
Under RRIRMRPPRLPRPRPRPGDEPRP stands 0.818; under RRIRNRPPRLPRPRPRPSNKPRP, -0.259; under RRIRTRPPRLPRPRPRPTEFPRP, -0.0268.
Under RRIRHRPPRLPRPRPRPHFLPRP stands -0.0519.
Under RRIRYRPPRLPRPRPRPVCVPRP stands -0.339; under RRIRKRPPRLPRPRPRPVCWPRP, 0.897.
RRIRFRPPRLPRPRPRPARDPRP: the “shrunken log2 fold change” value is 0.732.
Under RRIRFRPPRLPRPRPRPVFFPRP stands 0.00921; under RRIRPRPPRLPRPRPRPAWKPRP, -0.109.
To RRIRWRPPRLPRPRPRPANMPRP belongs -0.0899.
Under RRIRTRPPRLPRPRPRPGSGPRP stands 0.344.
With RRIRARPPRLPRPRPRPLPDPRP, the “shrunken log2 fold change” value was 1.07.
To RRIRDRPPRLPRPRPRPVAHPRP belongs -0.0445.
To RRIRARPPRLPRPRPRPTIVPRP belongs -0.152; to RRIRDRPPRLPRPRPRPNLFPRP, 0.0627.
To RRIRPRPPRLPRPRPRPICTPRP belongs 0.0424; to RRIRERPPRLPRPRPRPPFKPRP, -0.0871.
Consider RRIRNRPPRLPRPRPRPPGAPRP, for which the “shrunken log2 fold change” value worked out at 0.665.
To RRIRDRPPRLPRPRPRPDWWPRP belongs 0.0503.
Take RRIRARPPRLPRPRPRPEDVPRP: the “shrunken log2 fold change” value was found to be 0.931.
To RRIRCRPPRLPRPRPRPMYHPRP belongs -0.974; to RRIRERPPRLPRPRPRPYAAPRP, -0.368.
To RRIRIRPPRLPRPRPRPYNGPRP belongs -0.0564; to RRIRTRPPRLPRPRPRPLYPPRP, -0.154.
To RRIRDRPPRLPRPRPRPNMQPRP belongs -0.339; to RRIRHRPPRLPRPRPRPQDPPRP, 0.0646; to RRIRMRPPRLPRPRPRPFHFPRP, -0.313.
For RRIRYRPPRLPRPRPRPTFAPRP, the “shrunken log2 fold change” value was -0.321.
Under RRIRNRPPRLPRPRPRPGMHPRP stands -0.015.
With RRIRFRPPRLPRPRPRPQQDPRP, the “shrunken log2 fold change” value is -0.24.
Under RRIRSRPPRLPRPRPRPRYMPRP stands -0.664.
To RRIRWRPPRLPRPRPRPRTRPRP belongs 0.755; to RRIRERPPRLPRPRPRPFMMPRP, -0.584; to RRIRMRPPRLPRPRPRPLVPPRP, 0.208.
As to RRIRMRPPRLPRPRPRPNNTPRP, the “shrunken log2 fold change” value was -0.292.
In the case of RRIRWRPPRLPRPRPRPWTSPRP, the “shrunken log2 fold change” value is -0.0584.
With RRIRERPPRLPRPRPRPSCVPRP, the “shrunken log2 fold change” value is -0.356.
Under RRIRCRPPRLPRPRPRPAACPRP stands 0.202; under RRIRKRPPRLPRPRPRPPPFPRP, 0.442; under RRIRDRPPRLPRPRPRPRCAPRP, 0.885.
Under RRIRGRPPRLPRPRPRPWSSPRP stands -0.0552.
To RRIRTRPPRLPRPRPRPFSGPRP belongs -0.0204; to RRIRSRPPRLPRPRPRPTYSPRP, -0.453.
Consider RRIRFRPPRLPRPRPRPPRHPRP, for which the “shrunken log2 fold change” value is 0.411.
Take RRIRLRPPRLPRPRPRPAAFPRP: the “shrunken log2 fold change” value worked out at 0.184.
Under RRIRRRPPRLPRPRPRPIRDPRP stands 0.196; under RRIRQRPPRLPRPRPRPCGNPRP, 0.0751.
To RRIRPRPPRLPRPRPRPCHYPRP belongs -0.146; to RRIRQRPPRLPRPRPRPLCYPRP, -0.383; to RRIRARPPRLPRPRPRPYCCPRP, -0.181.
To RRIRQRPPRLPRPRPRPQIVPRP belongs -0.026; to RRIRFRPPRLPRPRPRPQDNPRP, -0.186.
As to RRIRYRPPRLPRPRPRPFGLPRP, the “shrunken log2 fold change” value is -0.282.
Under RRIRPRPPRLPRPRPRPSHAPRP stands -0.166; under RRIRFRPPRLPRPRPRPQVMPRP, -0.265.
To RRIRARPPRLPRPRPRPSTEPRP belongs 0.396.
Consider RRIRIRPPRLPRPRPRPGIQPRP, for which the “shrunken log2 fold change” value was -0.0834.
Under RRIRSRPPRLPRPRPRPDCAPRP stands 0.187; under RRIRWRPPRLPRPRPRPHDFPRP, -0.313; under RRIRCRPPRLPRPRPRPWQQPRP, -0.000303.
Under RRIRCRPPRLPRPRPRPKFVPRP stands -0.155.
To RRIRNRPPRLPRPRPRPFNQPRP belongs -0.408; to RRIRWRPPRLPRPRPRPGNTPRP, -0.348.
For RRIRNRPPRLPRPRPRPAMMPRP, the “shrunken log2 fold change” value came out at 0.0394.
As to RRIRRRPPRLPRPRPRPIYKPRP, the “shrunken log2 fold change” value is -0.394.
